Test results taken from patent US20230129812A1, “COMPOSITIONS AND METHODS FOR TREATING PULMONARY HYPERTENSION” (Acceleron Pharma Inc., priority 2020, published 2023).
“Also recorded” adds a separate entry of the source.

Legend:
activin A [1] = target: T1, activin A (Homo sapiens, UniProt P08476); experiment: Biacore ligand binding profile, ALK4-Fc:ActRIIB-Fc heterodimer vs homodimers, anti-Fc capture (Example 13, Table 13)
T1 sequence (P08476 311-426): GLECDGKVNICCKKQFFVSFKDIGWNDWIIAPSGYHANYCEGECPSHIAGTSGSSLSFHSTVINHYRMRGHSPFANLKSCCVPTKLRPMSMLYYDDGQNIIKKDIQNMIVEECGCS
Method: (§1) A Biacore™-based binding assay was used to compare ligand binding selectivity of the ALK4-Fc:ActRIIB-Fc heterodimeric complex described above with that of ActRIIB-Fc and ALK4-Fc homodimer complexes. The ALK4-Fc:ActRIeB-Fc heterodimer, […], and ALK4-Fc homodimer were independently captured onto the system using an anti-Fc antibody. Ligands were injected and allowed to flow over the captured receptor protein. Results are summarized in Table 13 below, in which ligand off-rates (kd) most indicative of effective polypeptides are denoted in bold.

GDF8 [2] = target: T2, GDF8 (Homo sapiens, UniProt O14793); experiment: as above
T2 sequence (O14793 267-375): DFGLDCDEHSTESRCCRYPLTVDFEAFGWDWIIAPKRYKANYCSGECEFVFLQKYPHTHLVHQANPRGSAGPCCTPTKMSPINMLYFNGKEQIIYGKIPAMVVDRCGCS
Method: as §1

GDF3 = target: T3, GDF3 (Homo sapiens, UniProt Q9NR23); experiment: as above
T3 sequence (Q9NR23 251-364): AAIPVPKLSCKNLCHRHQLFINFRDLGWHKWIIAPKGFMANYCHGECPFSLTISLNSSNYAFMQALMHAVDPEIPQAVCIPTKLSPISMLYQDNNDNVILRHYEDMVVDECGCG
Method: as §1

activin B [3] = target: T4, activin B (Homo sapiens, UniProt P09529); experiment: as above
T4 sequence (P09529 293-407): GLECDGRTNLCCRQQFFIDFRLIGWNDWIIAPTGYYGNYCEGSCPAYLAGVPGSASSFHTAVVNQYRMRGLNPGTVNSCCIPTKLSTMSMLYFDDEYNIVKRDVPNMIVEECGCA
Method: as §1

BMP6 = target: T5, BMP6 (Homo sapiens, UniProt P22004); experiment: as above
T5 sequence (P22004 375-513): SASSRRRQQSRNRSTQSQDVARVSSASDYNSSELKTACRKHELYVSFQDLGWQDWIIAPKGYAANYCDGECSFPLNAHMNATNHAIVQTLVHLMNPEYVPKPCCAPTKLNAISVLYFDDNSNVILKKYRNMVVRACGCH
Method: as §1

BMP9 [4] = target: T6, BMP9 (Homo sapiens, UniProt Q9UK05); experiment: as above
T6 sequence (Q9UK05 320-429): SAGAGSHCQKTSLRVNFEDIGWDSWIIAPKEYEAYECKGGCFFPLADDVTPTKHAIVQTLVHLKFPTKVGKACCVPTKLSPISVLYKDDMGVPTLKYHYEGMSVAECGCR
Method: as §1

BMP10 = target: T7, BMP10 (Homo sapiens, UniProt O95393); experiment: A-204 Reporter Gene Assay (Example 13); assay type: cell-based
T7 sequence (O95393 317-424): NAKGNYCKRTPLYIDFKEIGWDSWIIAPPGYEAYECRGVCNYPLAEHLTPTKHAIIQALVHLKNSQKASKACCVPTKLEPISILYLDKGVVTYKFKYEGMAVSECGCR
From the text: (§2) In addition, an A-204 Reporter Gene Assay was used to evaluate the effects of ALK4-Fc:ActRIIB-Fc heterodimer and ActRIIB-Fc:ActRIIB-Fc homodimer on signaling by activin A, activin B, GDF11, GDF8, BMP10, and BMP9. Cell line: Human Rhabdomyosarcoma (derived from muscle). Reporter vector: pGL3(CAGA)12 (as described in Dennler et al, 1998, EMBO 17: 3091-3100). The CAGA12 motif is present in TGFβ responsive genes (PAI-1 gene), so this vector is of general use for factors signaling through Smads. An exemplary A-204 Reporter Gene Assay is outlined below. • Day 1: Split A-204 cells into 48-well plate. • Day 2: A-204 cells transfected with 10 ug pGL3(CAGA)12 or pGL3(CAGA)12(10 ug)+pRLCMV (1 ug) and Fugene. • Day 3: Add factors (diluted into medium+0.1% BSA). Inhibitors need to be pre-incubated with Factors for about one hr before adding to cells. About six hrs later, cells are rinsed with PBS and then lysed.
(§3) Following the above steps, a Luciferase assay was performed.

activin B [5] = target: T4, activin B; experiment: A-204 Reporter Gene Assay (Example 13); assay type: cell-based
From the text: as §2, §3

BMP9 [6] = target: T6, BMP9; experiment: A-204 Reporter Gene Assay (Example 13); assay type: cell-based
From the text: as §2, §3

GDF8 [7] = target: T2, GDF8; experiment: A-204 reporter gene assay, pGL3(CAGA)12 luciferase; assay type: cell-based
From the text: An A-204 reporter gene assay was used to evaluate the effects of ActRIIB-Fc proteins and ActRIIB variant Fc fusion polypeptides on signaling by GDF-11 and activin A. Cell line: human rhabdomyosarcoma (derived from muscle). Reporter vector: pGL3(CAGA)12 (described in Dennler et al, 1998, EMBO 17: 3091-3100). The CAGA12 motif is present in TGF-beta responsive genes (e.g., PAI-1 gene), so this vector is of general use for factors signaling through SMADs.
Day 1: Split A-204 cells into 48-well plate.
Day 2: A-204 cells transfected with 10 ug pGL3(CAGA)12 or pGL3(CAGA)12(10 ug)+pRLCMV (1 pg) and Fugene.
Day 3: Add factors (diluted into medium+0.1% BSA). Inhibitors need to be preincubated with factors for 1 hr before adding to cells. Six hrs later, cells were rinsed with PBS and lysed.
This is followed by a luciferase assay.
As described below, ActRIIB variants were also tested in this assay.
as §2, §3

activin A [8] = target: T1, activin A; experiment: A-204 reporter gene assay, pGL3(CAGA)12 luciferase; assay type: cell-based; conditions: A-204 reporter gene assay
Summary of the method: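 Human rhabdomyosarcoma A-204 cells transfected with SMAD-responsive pGL3(CAGA)12 luciferase reporter (optionally with pRLCMV). Ligand in medium + 0.1% BSA, preincubated ~1 h with Fc-fusion inhibitor before addition to cells; after ~6 h cells lysed and luciferase activity measured.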

B1: ALK4-Fc:ActRIIB-Fc heterodimer: heteromeric complex of extracellular domains of human ActRIIB and human ALK4, each separately fused to an Fc domain with a linker (protein)
chain 1: GRGEAETRECIYYNANWELERTNQSGLERCEGEQDKRLHCYASWRNSSGTIELVKKGCWLDDFNCYDRQECVATEENPQVYFCCCEGNFCNERFTHLPEAGGPEVTYEPPPTAPTGGGTHTCPPCPAPELLGGPSVFLFPPKPKDTLMISRTPEVTCVVVDVSHEDPEVKFNWYVDGVEVHNAKTKPREEQYNSTYRVVSVLTVLHQDWLNGKEYKCKVSNKALPAPIEKTISKAKGQPREPQVYTLPPSRKEMTKNQVSLTCLVKGFYPSDIAVEWESNGQPENNYKTTPPVLKSDGSFFLYSKLTVDKSRWQQGNVFSCSVMHEALHNHYTQKSLSLSPGK
chain 2: SGPRGVQALLCACTSCLQANYTCETDGACMVSIFNLDGMEHHVRTCIPKVELVPAGKPFYCLSSEDLRNTHCCYTDYCNRIDLRVPSGHLKEPEHPSMWGPVETGGGTHTCPPCPAPELLGGPSVFLFPPKPKDTLMISRTPEVTCVVVDVSHEDPEVKFNWYVDGVEVHNAKTKPREEQYNSTYRVVSVLTVLHQDWLNGKEYKCKVSNKALPAPIEKTISKAKGQPREPQVYTLPPSREEMTKNQVSLTCLVKGFYPSDIAVEWESNGQPENNYDTTPPVLDSDGSFFLYSDLTVDKSRWQQGNVFSCSVMHEALHNHYTQKSLSLSPG
activin A binding (activin A [1]; Example 13): strong binding
ka (activin A [1]; ligand Activin A, Table 13): 1.3e+07 M⁻¹ s⁻¹
kd (activin A [1]; ligand Activin A, Table 13): 0.00015 s⁻¹
GDF8 binding (GDF8 [2]; Example 13): strong binding
ka (GDF8 [2]; ligand GDF8, Table 13): 390000 M⁻¹ s⁻¹
kd (GDF8 [2]; ligand GDF8, Table 13): 0.00021 s⁻¹
GDF3 binding (GDF3; Example 13): substantially reduced binding
ka (GDF3; ligand GDF3, Table 13): 3.4e+06 M⁻¹ s⁻¹
kd (GDF3; ligand GDF3, Table 13): 0.017 s⁻¹
activin B binding (activin B [3]; Example 13): enhanced binding to activin B compared with either homodimer
ka (activin B [3]; ligand Activin B, Table 13): 7.1e+06 M⁻¹ s⁻¹
kd (activin B [3]; ligand Activin B, Table 13): 4e-05 s⁻¹
BMP6 binding (BMP6; Example 13): intermediate-level binding
ka (BMP6; ligand BMP6, Table 13): 2e+06 M⁻¹ s⁻¹
kd (BMP6; ligand BMP6, Table 13): 0.0055 s⁻¹
BMP9 binding (BMP9 [4]; Example 13): substantially reduced binding; also recorded: low or no observable affinity
kd (BMP9 [4]; ligand BMP9, Table 13): Transient*
inhibition of BMP10 signaling (BMP10): significantly reduced
inhibition of activin B signaling (activin B [5]): potent inhibitors
inhibition of BMP9 signaling (BMP9 [6]): significantly reduced
inhibition of GDF8 signaling (GDF8 [7]): potent inhibitors
inhibition of activin A signaling (activin A [8]): potent inhibitors
